Reference: article doi:10.1101/2025.06.17.660072

System: PSMα3
Assay: EMSA

| Substance | Kd [µM] |
| --- | --- |
| Poly (A) RNA, oligoA | 94.5 |
| Poly (AU) RNA, oligoA/oligoU duplex | 61.8 |
